The values that follow come from article doi:10.64898/2025.12.24.696337, “A Broadly Conserved Protective Epitope on the Lyme Disease Vaccine Antigen, OspA” (bioRxiv, 2025).

Where a chain is given by its changes, count along the chain named. Bounds are passed on as bounds.

In assay [1] the target is T1, Native OspA serotype 3 on B. garinii PBr cells (Borreliella garinii PBr, UniProt B8F1J0, strain).
T1 construct: OspA serotype 3 of B. garinii PBr, native on the bacterial surface; also called native OspA ST3; source: endogenous, B. garinii PBr cells
The assay can be described thus: flow cytometry on cells; native Bbsl strains (primary isolates, ST1-7) probed with mAb. The note with it: one partner purified.

For assay [2], the target named is T2, Recombinant OspAST1 (residues 18-273) from B. burgdorferi B31 (Borreliella burgdorferi B31, UniProt P0CL66).
T2 construct: Outer surface protein A (OspA) serotype 1, B. burgdorferi B31, residues 18 to 273; Used for the crystal structures; also called OspA (18-273); outer surface protein A serotype 1; not shown: His10, N-terminal, cleaved; SUMO, N-terminal, cleaved
Nature of the assay: BLI; Octet RED96e; mAb captured on AHC sensors, three-fold dilution series of OspA (21.58 nM to 0.089 nM); PBS, 0.1% BSA, 0.01% Tween20; global 1:1 model. The note with it: both partners purified. For orientation: In BLI a coated tip is dipped into the sample, and binding shifts an interference pattern.

The target in assay [3] is T3, OspA serotype 2 (B. afzelii PKo allele) on B. burgdorferi HB19-R1 reporter strain (Borreliella afzelii PKo allele, in B. …, UniProt P0A3N7).
T3 construct: OspA serotype 2, allele of B. afzelii PKo; also called OspAST2; OspA ST2; source: expressed from a reporter plasmid in B. burgdorferi HB19-R1, on live cells
Nature of the assay: flow cytometry on cells; live B. burgdorferi HB19-R1 reporter strains expressing OspA ST1-7 probed with 10 µg/ml mAb, then Alexa 647-labeled goat anti-human IgG. The conditions noted are these: one partner purified. (Flow cytometry measures light scatter and fluorescence of single cells or particles in a stream.)

For assay [4], the target named is T4, OspA serotype 3 (B. garinii PBr allele) on B. burgdorferi HB19-R1 reporter strain (Borreliella garinii PBr allele, in B. …, UniProt B8F1J0, strain).
T4 construct: OspA serotype 3, allele of B. garinii PBr; also called OspAST3; OspA ST3; source: expressed from a reporter plasmid in B. burgdorferi HB19-R1, on live cells
The assay is described as above. The note with it: one partner purified.

Assay [5] concerns the target T5, OspA serotype 4 (B. bavariensis PBi allele) on B. burgdorferi HB19-R1 reporter strain (Borreliella bavariensis PBi allele, in …, UniProt Q6LBF1, strain).
T5 construct: OspA serotype 4, allele of B. bavariensis PBi; also called OspAST4; OspA ST4; source: expressed from a reporter plasmid in B. burgdorferi HB19-R1, on live cells
The description is as above. The conditions noted are these: one partner purified.

For assay [6], the target named is T6, Recombinant OspA serotype 1 (provided by Moderna) (Borreliella burgdorferi, strain not …, UniProt P0CL66).
T6 construct: OspA serotype 1; also called recombinant OspA ST1; ST 1; source: E. coli, purified; provided by Dr. Meredith Finn (Moderna)
Nature of the assay: microsphere immunoassay (MIA); recombinant OspA ST1-7 coupled to Magplex-C microspheres; serial dilutions of mAb in PBS, 2% BSA, pH 7.4, 1 h at room temperature; PE goat anti-human IgG Fc. The conditions noted are these: both partners purified.

T3 sequence (P0A3N7 17-273): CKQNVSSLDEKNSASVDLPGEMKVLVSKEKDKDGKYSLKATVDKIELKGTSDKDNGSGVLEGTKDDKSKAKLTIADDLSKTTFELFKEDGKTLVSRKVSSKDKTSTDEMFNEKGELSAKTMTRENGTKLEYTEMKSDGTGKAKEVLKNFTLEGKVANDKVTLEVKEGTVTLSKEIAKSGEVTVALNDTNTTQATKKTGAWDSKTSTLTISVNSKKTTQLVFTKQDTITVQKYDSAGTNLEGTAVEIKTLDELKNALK
T6 sequence (P0CL66 17-273): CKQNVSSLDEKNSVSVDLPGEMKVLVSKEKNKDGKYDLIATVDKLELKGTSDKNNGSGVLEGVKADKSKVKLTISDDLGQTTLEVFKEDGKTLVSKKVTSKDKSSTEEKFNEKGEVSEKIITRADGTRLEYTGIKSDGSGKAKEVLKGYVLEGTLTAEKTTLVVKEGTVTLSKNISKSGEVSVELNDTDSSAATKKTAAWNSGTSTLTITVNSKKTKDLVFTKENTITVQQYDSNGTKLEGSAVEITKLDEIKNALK

B1: 857-2, recombinant human monoclonal IgG1 (antibody, V domains shown)
VH: EVQLVQSGEEVKKPGESLKISCKGSGYKFSSYWIGWVRQMPGKGLEWMGIIFPGDSDKRYSPSFQGQVTISADKSISTVYLQWSSLKASDTAMYYCARHITTHTYRGFFDFWGQGTLVTVSS
VL: AIQLTQSPSSLSASVGDRVTITCRASQDISSALAWYQQKPGKAPKLLIYDVSSLESGVPSRFSGSGSGTDFTLTISSLQPEDFATYYCQQFNGYPHRLTFGGGTKVEIK
notes: rest human IgG1 constant region; IgG1; VH germline HV5-51, VL germline KV1-13; also called mAb 857-2; Class I Bin 1 mAb; source: Expi293, transiently transfected with VH and VL plasmids, purified (Protein A)
In general, Kd refers to the concentration at which binding is half-saturated. As for B1, the binding result in assay [1] was “binds”. In assay [2], the Kd turned out to be 300 pM. In addition, the MFI in assay [3], in assay [4] and in assay [5] was above 4000 in each case.

B2: 221-11, recombinant human monoclonal IgG1 (antibody, V domains shown)
VH: EVQLVQSGAEVKKPGESLKISCQSSGYRFTIYWIGWVRQMPGKGLEWMGIIWPGDSDTRYSPSFQGQVTISADKSISTAYLQWSSLKASDTAMYYCVRGIGRYSNWFLDYWGQGTLVTVSS
VL: AIQLTQSPSSLSASVGDRVTITCRASQGFSSALAWYQQKPGKAPKLLIYDASSLESGVPSRFSGSGSGTDFTLTISSLQPEDFATYYCQQFNSYPLTFGGGTKVEIK
notes: rest human IgG1 constant region; IgG1; VH germline HV5-51, VL germline KV1-13; also called Class II Bin 1 mAb; source: Expi293, transiently transfected with VH and VL plasmids, purified (Protein A)
Regarding B2, the Kd in assay [2] stood at 350 pM. Further, the binding result in assay [4] is given as “binds”.

B3: 227-1, recombinant human monoclonal IgG1 (antibody, V domains shown)
VH: EVQLVQSGAEVKMPGESLKISCEVSGYSFTSYWIGWVRQMPGKGLEWMGIIYPGDSDTRYSPSFQGQVTISADKSISTAYLQWSSLKASDTAMYYCTRSISRSGPGFSLSWFFDYWGQGTLVTVSS
VL: B2 VL with F29I, S31N, S56R, S67F, T85I, S93G, Y94F, L96N, G100Q, K103R
notes: rest human IgG1 constant region; IgG1; VH germline HV5-51, VL germline KV1-13; also called Class III Bin 1 mAb; source: Expi293, transiently transfected with VH and VL plasmids, purified (Protein A)
Take B3: in assay [2], the Kd stood at 1700 pM.

B4: 221-5, recombinant human monoclonal IgG1 (antibody, V domains shown)
VH: EVQLVQSGAEVKKPGESLKISCKGSGYSFTSYWIGWVRQMPGKGLEWMGIIYPGDSDTRYSPSFQGQVTISADKSISTAYLQWSSLKASDTAMYYCARHLGIDYFFGMDVWGQGTTVTVSS
VL: EIVLTQSPATLSLSPGERATLSCRASQSVSSYLAWYQQKPGQAPRLLIYDASTRDTGIPARFSGSGSGTDFTLTISSLEPEDFAVYYCQHHSNWYTFGQGTKLEIK
notes: rest human IgG1 constant region; IgG1; VH unmutated from germline HV5-51, VL derived from KV3-11; also called Class I Bin 1 mAb; source: Expi293, transiently transfected with VH and VL plasmids, purified (Protein A)
In the case of B4, the Kd in assay [2] turned out to be 520 pM. Moreover, the MFI in assay [3], in assay [4] and in assay [5] was above 4000 in each case. For the same molecule, in assay [6], the binding result was “binds”.
